Biological target: His6-FLAG-MBP-tagged DHX15 (aa 113–795) (human, UniProt O43143 113-795)
Experiment: co-IP

His6-FLAG-MBP-tagged DHX15 (aa 113–795), sequence (O43143 113-795): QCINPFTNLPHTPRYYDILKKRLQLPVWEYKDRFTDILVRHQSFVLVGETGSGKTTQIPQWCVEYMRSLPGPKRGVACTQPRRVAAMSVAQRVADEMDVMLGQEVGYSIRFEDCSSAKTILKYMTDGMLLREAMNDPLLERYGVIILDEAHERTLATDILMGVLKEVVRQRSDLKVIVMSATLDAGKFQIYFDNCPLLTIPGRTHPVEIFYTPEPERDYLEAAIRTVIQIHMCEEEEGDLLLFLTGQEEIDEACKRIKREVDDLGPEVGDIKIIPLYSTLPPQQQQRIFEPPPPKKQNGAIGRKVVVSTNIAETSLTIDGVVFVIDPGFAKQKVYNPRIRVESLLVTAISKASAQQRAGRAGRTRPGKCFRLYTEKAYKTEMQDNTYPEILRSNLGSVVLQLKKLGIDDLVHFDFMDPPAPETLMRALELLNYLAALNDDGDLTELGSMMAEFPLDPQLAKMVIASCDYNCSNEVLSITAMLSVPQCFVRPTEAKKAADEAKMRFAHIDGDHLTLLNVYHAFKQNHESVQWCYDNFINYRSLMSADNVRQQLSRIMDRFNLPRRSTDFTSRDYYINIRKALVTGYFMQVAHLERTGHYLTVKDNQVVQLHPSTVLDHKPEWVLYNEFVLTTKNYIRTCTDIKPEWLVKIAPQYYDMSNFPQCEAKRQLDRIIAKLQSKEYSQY

B1: His6-HA-tagged SUGP1 WT (full length) (natural protein)
chain: MSLKMDNRDVAGKANRWFGVAPPKSGKMNMNILHQEELIAQKKREIEAKMEQKAKQNQVASPQPPHPGEITNAHNSSCISNKFANDGSFLQQFLKLQKAQTSTDAPTSAPSAPPSTPTPSAGKRSLLISRRTGLGLASLPGPVKSYSHAKQLPVAHRPSVFQSPDEDEEEDYEQWLEIKVSPPEGAETRKVIEKLARFVAEGGPELEKVAMEDYKDNPAFAFLHDKNSREFLYYRKKVAEIRKEAQKSQAASQKVSPPEDEEVKNLAEKLARFIADGGPEVETIALQNNRENQAFSFLYEPNSQGYKYYRQKLEEFRKAKASSTGSFTAPDPGLKRKSPPEALSGSLPPATTCPASSTPAPTIIPAPAAPGKPASAATVKRKRKSRWGPEEDKVELPPAELVQRDVDASPSPLSVQDLKGLGYEKGKPVGLVGVTELSDAQKKQLKEQQEMQQMYDMIMQHKRAMQDMQLLWEKAVQQHQHGYDSDEEVDSELGTWEHQLRRMEMDKTREWAEQLTKMGRGKHFIGDFLPPDELEKFMETFKALKEGREPDYSEYKEFKLTVENIGYQMLMKMGWKEGEGLGSEGQGIKNPVNKGTTTVDGAGFGIDRPAELSKEDDEYEAFRKRMMLAYRFRPNPLNNPRRPYY
  binding result: binds
